The subject of the series is MS2 coat protein. In words: apparent KD of MS2 coat protein; designed switch direction (-1 OFF switch, 1 ON switch): -1; higher = weaker reporter binding. A digest of the protocol:
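Stalled E. coli RNA polymerase transcribed designed RNA switches on Illumina chips, which were then titrated with SNAP-549-labelled MS2 coat protein, doubling from 0.7 or 1.5 nM to 3 µM. Steps lasted from 0.8–1.5 h at the lowest concentration to 10–20 min at the highest. The apparent KD is each design's median over clusters of curve-fitted normalised fluorescence.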

The mark [1] stands for this setting: input ligand: microRNA oligo, concentration not stated.
The mark [2] stands for this setting: Eterna round: R95, input ligand: FMN 200 uM.
Where [3] appears, read: Eterna round: R95, input ligand: microRNA oligo, concentration not stated.
Where [4] appears, read: Eterna round: R95, input ligand: none.

For the sequence “AGUACUGACACGUUGGUGUUAGUACAAUAAGCUUGUGACACAUGAGGAUCACCCAUGUCCUCAUAAGCUCGUCUUAU [salish99_TOv2_r2_094] (Eterna round: R96, puzzle: Sensor v3, turn-off variant 2)”, the “apparent KD of MS2 coat protein” value (input ligand: FMN 200 uM) is 22.9 nM, the “apparent KD of MS2 coat protein” value under setting [1] is 468 nM and the “apparent KD of MS2 coat protein” value (input ligand: none) amounted to 25.4 nM.

“AGUACUGACACGUUGGUGUUAGUACAAUAAGCUUGUGACACAUGAGGAUCACCCAUGUCCUCAUAAGCUCGUCUUAU [salish99_TOv2_r2_094] (puzzle: Sensor v3, turn-off variant 2)”: the “apparent KD of MS2 coat protein” value was determined as 22 nM under setting [2], 1080 nM under setting [3] and 20.7 nM under setting [4].

With “AGUAGAUCUACGCUUGCGUGGAUCUGCAAUGCAAGUGUUACAUGAGGAUCACCCAUGUCCUCAUUUGCUCGUCUUAG [JL turnoff v2 99.05] (puzzle: Sensor v3, turn-off variant 2)”, the “apparent KD of MS2 coat protein” value runs as follows: under setting [2], 41.4 nM; under setting [3], 108 nM; under setting [4], 45.4 nM.

For the sequence “AGUAUGCGAGGAUAUACAUGAGGAUCACCCAUGUGAGAGAUAAAAGUGAGAAAGACAAGUAGAAGGCGCGUACA [JL Lego Mod 23] (Eterna round: R96, puzzle: Exclusion 3)”, the “apparent KD of MS2 coat protein” value (input ligand: FMN 200 uM) was 413 nM, the “apparent KD of MS2 coat protein” value under setting [1] turned out to be 41.9 nM and the “apparent KD of MS2 coat protein” value (input ligand: none) came out at 81.1 nM.

For the sequence “AGUCAGACGGUAGGAUAUCCAUAUCGAGUGACCCUUUCAUAACAUGAGGAUCACCCAUGUCGGUGGGAGAAGGGCCGUACGGCG [JL ViennaUCT Atra mod 5] (Eterna round: R96, puzzle: Exclusion NG 2)”, the “apparent KD of MS2 coat protein” value worked out at 226 nM (input ligand: FMN 200 uM), 93.3 nM under setting [1] and 129 nM (input ligand: none).

Turning to “AGUCAGGCGGUAGGAUAUCCAAACCGAGUGACCCUCUCAUAACAUGAGGAUCACCCAUGUCGGUGGGAGAAGGGCCGUACGGCG [Atra] (Eterna round: R96, puzzle: Exclusion NG 2)”, the “apparent KD of MS2 coat protein” value (input ligand: FMN 200 uM) was 206 nM, the “apparent KD of MS2 coat protein” value under setting [1] turned out to be 90 nM and the “apparent KD of MS2 coat protein” value (input ligand: none) stood at 117 nM.

In the case of “AGUCAGUCAGGAUAUCAAAUCCGUGGACCUUACGAUGCGGCUGAGAAGGGACAUGAGGAUCACCCAUGUUGGGU [Eternabot (L2) Solution 27] (Eterna round: R97, puzzle: Exclusion 4)”, the “apparent KD of MS2 coat protein” value is 60.8 nM (input ligand: FMN 200 uM) and 66.5 nM (input ligand: none).

With “AGUCCUGCGGUGAGGAUAUAUUUGUAGCCAUUCAGGUAGAAGGCACUUGAGGAUCACCCAAGUAAAGAACCAAC [Releat] (Eterna round: R97, puzzle: Brourd's mod of Exclusion 4)”, the “apparent KD of MS2 coat protein” value reads like this: (input ligand: FMN 200 uM) 39 nM; (input ligand: none) 28 nM.

Consider “AGUCGGCGAGGAUAUACAUGAGGAUCACCCAUGUGGAAUCCUAGACCUGUAGGUCCAUGUAGAAGGCGCUGACA [Exclusion 3 - Was a mod at one point v.2] (puzzle: Exclusion 3)”, for which the “apparent KD of MS2 coat protein” value under setting [2] amounted to 32.2 nM, the “apparent KD of MS2 coat protein” value under setting [3] was determined as 212 nM and the “apparent KD of MS2 coat protein” value under setting [4] turned out to be 192 nM.

As for “AGUCGUAGACAGGAUAUGCGGCUAAUAAAUAAUGCAGAAGGGUCUACUUGAGGAUCACCCAAGUGGGCGGUCUG [jl-ex6-4.23 ViennaUCT mod] (Eterna round: R97, puzzle: Exclusion 6)”, the “apparent KD of MS2 coat protein” value is, setting by setting: (input ligand: FMN 200 uM) 70.3 nM; (input ligand: none) 17.3 nM.

For the sequence “AGUGACUUAGGAUAUUGGCAUGAAGACAUGAGGAUCACCCAUGUCCUCGUAGUCAUUCGCCGAGAAGGGAGAGAUU [Eternabot (L2) Solution 50] (Eterna round: R97, puzzle: Exclusion 5)”, the “apparent KD of MS2 coat protein” value is 126 nM (input ligand: FMN 200 uM) and 84.4 nM (input ligand: none).

Turning to “AGUGGGCUAGGAUAUCGAUGAACUCACAUGAGGAUCACCCAUGUGUCUUCGGUGGGCUCACGAGAAGGAGUAAGUU [Teanislaa] (puzzle: Exclusion 5)”, the “apparent KD of MS2 coat protein” value under setting [3] was 15.7 nM.

Take “AGUGGGUCAGGAUAUUCUAUUAAUUACAUGAGGAUCACCCAUGUGAAUGGACAAGGGUGUGAAGAAGGGACUUGCG [Omei Ex5 A17d] (Eterna round: R97, puzzle: Exclusion 5)”: the “apparent KD of MS2 coat protein” value is, setting by setting: (input ligand: FMN 200 uM) 324 nM; (input ligand: none) 546 nM.

Take “AGUGUGAGGCAGGAUAUGCUAUAUGUACGUAAUGCAGAAGGGUCUACAUGAGGAUCACCCAUGUGUGCGGUUGA [Ex6 #8] (Eterna round: R97, puzzle: Exclusion 6)”: the “apparent KD of MS2 coat protein” value by setting is: (input ligand: FMN 200 uM) 309 nM; (input ligand: none) 289 nM.

With “AGUGUGUCAGGAUAUUCUAUUAAUUACAUGAGGAUCACCCAUGUGAAUGGACAAGGGUGUGAAGAAGGGACGUGCG [Omei Ex5 A17e] (Eterna round: R97, puzzle: Exclusion 5)”, the “apparent KD of MS2 coat protein” value runs as follows: (input ligand: FMN 200 uM) 211 nM; (input ligand: none) 381 nM.

For the sequence “AGUGUGUGGCAGGAUAUUCUAAUCGUGAGUCGGGAAGAAGGGUCUACAUGAGGAUCACCCAUGUGAGCGGUUGA [Ex6 #45] (Eterna round: R97, puzzle: Exclusion 6)”, the “apparent KD of MS2 coat protein” value (input ligand: FMN 200 uM) was 219 nM and the “apparent KD of MS2 coat protein” value (input ligand: none) was determined as 245 nM.

Turning to “AGUUCGCAGAGAGGAUAUAUAGGGUUACGGCCUAUAGAAGGUUCACGUUAGCCGCAACAUGAGGAUCACCCAUGUGCUCCGCGA [Eternabot solution 35] (Eterna round: R96, puzzle: Exclusion NG 1)”, the “apparent KD of MS2 coat protein” value amounted to 27.5 nM (input ligand: FMN 200 uM), 20.9 nM under setting [1] and 29.6 nM (input ligand: none).

Turning to “AGUUGGCGAGGAUAUACAUGAGGAUCACCCAUGUGAGAGAAAAAAGUGAGGAAGAAAAGUAGAAGGCGCUGACC [salish99_ex3_r3_041] (puzzle: Exclusion 3)”, the “apparent KD of MS2 coat protein” value is, setting by setting: under setting [2], 245 nM; under setting [3], 49.8 nM; under setting [4], 81.8 nM.

For “AGUUGGCGAGGAUAUACAUGAGGAUCACCCAUGUGAGAGAUACUAGUGAGGUCGAUUAGUAGAAGGCGCUGACG [Mat - Exclusion 3 - Mod of JL D76] (puzzle: Exclusion 3)”, the “apparent KD of MS2 coat protein” value by setting is: under setting [2], 1170 nM; under setting [3], 25.3 nM; under setting [4], 49.3 nM.

Consider “AGUUGGGCAGGAUAUACAUGAGGAUCACCCAUGUGAGAAAUACUAGUGAGGUCGAUUAGUAGAAGGGCCUGACA [Mat - Exclusion 3 - Eli Mod - D30] (Eterna round: R97, puzzle: Exclusion 3)”, for which the “apparent KD of MS2 coat protein” value came out at 244 nM (input ligand: FMN 200 uM) and 31.2 nM (input ligand: none).

Turning to “AUAAAACAUGAGGAUCACCCAUGUCAGGAUAUACGACUCCAACCAAACUGCUUGGACCGUAGAAGGGACAAGGG [Exclusion 1 (MOD2 Esqu)] (Eterna round: R97, puzzle: Exclusion 1)”, the “apparent KD of MS2 coat protein” value by setting is: (input ligand: FMN 200 uM) 140 nM; (input ligand: none) 277 nM.

For “AUAAAGCAAGCAUGGUCCCACAUGAGGAUCACCCAUGUGUUCGUCUUAUAGGCUGCUGAGGCUUUUGCCUCGGUGGC [LRO Sensor-off var1-07 loose mod of D91 from Mat747] (Eterna round: R97, puzzle: Sensor, turn-off variant 1)”, the “apparent KD of MS2 coat protein” value (input ligand: FMN 200 uM) was determined as 155 nM and the “apparent KD of MS2 coat protein” value (input ligand: none) was found to be 179 nM.
